Test results: patent US20250368744A1 (CONCEPT TO MEDICINE BIOTECH, published 2025)
Residue numbers refer to the chain shown, from its start. Blank lines part the entries; values can stand above or below the binder they belong to.

Experiments:
cyno CCR8 = molecular target: T1, cyno CCR8 (cynomolgus, UniProt G7NYJ2 1-355); experiment: FACS (MFI-PE) on CHO-K1 cyno CCR8 cells
T1 construct: whole, on cells; also called cynomolgus CCR8 protein
Procedure: (§1) Briefly, HEK293 hCCR8 cell line, CHO-K1 cyno CCR8 cell line or CHO-K1 hCCR4 cell line was first incubated with 5-fold serially diluted and 8 doses with the above 10 chimeric Abs and hlgG1 control starting from 100 nM at 4° C. for 30 mins. After washing by FACS buffer, PE Goat anti-Human IgG Fc Secondary Antibody (eBioscience™, Invitrogen) was added to each well and incubated at 4° C. for 30 mins. Samples were washed twice with FACS buffer. The mean florescence intensity (MFI) of PE was evaluated by MACSQuant Analyzer 16.

human CCR4 = molecular target: T2, human CCR4 (human, UniProt P51679 1-360); experiment: FACS, CHO-K1 hCCR4 cells
T2 construct: whole, on cells; also called hCCR4
T2 sequence (looked up): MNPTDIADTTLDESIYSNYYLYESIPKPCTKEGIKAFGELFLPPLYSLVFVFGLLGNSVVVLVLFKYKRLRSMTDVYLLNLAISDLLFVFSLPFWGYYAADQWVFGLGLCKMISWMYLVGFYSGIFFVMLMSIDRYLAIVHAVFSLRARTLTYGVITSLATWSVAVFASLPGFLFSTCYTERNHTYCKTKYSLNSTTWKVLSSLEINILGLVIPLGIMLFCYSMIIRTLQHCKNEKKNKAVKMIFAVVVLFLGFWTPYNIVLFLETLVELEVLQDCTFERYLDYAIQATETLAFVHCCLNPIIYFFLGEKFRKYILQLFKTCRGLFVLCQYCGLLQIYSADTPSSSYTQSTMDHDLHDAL
Procedure: as §1

[1] = molecular target: T3, human C-C motif chemokine receptor 8 (CCR8) (human, UniProt P51685 1-355); experiment: FACS (MFI-PE) on HEK293 hCCR8 cells
T3 construct: whole, on cells; also called human CCR8; hCCR8
Procedure: as §1

[2] = molecular target: T3, human C-C motif chemokine receptor 8 …; experiment: cell-based or functional assay
[3] = molecular target: T3, human C-C motif chemokine receptor 8 …; experiment: cell-based or functional assay; remark: listed apart in the source
[4] = molecular target: T3, human C-C motif chemokine receptor 8 …; experiment: FACS (MFI-PE) on CHO-K1 hCCR8 cells, bars at five doses
Procedure: PE Goat anti-Human IgG Fc Secondary Antibody (eBioscience™, Invitrogen) was added to each well and incubated at 4° C. for 30 mins. Samples were washed twice with FACS buffer. The mean florescence intensity (MFI) of PE was evaluated by MACSQuant Analyzer 16.

T3 sequence (P51685 whole entry): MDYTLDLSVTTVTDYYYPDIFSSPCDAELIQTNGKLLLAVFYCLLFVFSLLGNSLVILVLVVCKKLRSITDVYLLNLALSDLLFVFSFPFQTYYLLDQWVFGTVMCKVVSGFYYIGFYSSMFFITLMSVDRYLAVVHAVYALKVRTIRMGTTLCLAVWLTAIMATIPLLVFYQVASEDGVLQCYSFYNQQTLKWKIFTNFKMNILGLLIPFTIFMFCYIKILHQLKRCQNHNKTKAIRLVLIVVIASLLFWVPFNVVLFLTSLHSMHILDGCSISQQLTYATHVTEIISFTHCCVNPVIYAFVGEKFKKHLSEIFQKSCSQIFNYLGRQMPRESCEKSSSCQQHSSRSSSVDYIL
T1 sequence (G7NYJ2 entry or part of it): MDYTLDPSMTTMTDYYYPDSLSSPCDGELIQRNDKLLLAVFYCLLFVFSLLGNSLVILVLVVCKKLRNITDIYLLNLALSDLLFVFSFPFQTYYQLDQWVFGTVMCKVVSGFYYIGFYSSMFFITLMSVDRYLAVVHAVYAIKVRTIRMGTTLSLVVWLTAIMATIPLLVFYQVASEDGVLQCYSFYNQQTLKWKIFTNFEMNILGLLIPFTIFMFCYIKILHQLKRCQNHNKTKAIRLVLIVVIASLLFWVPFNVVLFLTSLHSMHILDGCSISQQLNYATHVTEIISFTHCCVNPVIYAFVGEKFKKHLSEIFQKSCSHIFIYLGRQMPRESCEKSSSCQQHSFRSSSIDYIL

EC50 (cyno CCR8): 0.0942 nM
EC50 [1]: 0.101 nM
B1: 99D1-1E11 (antibody, V domains shown)
VH: DLQLKESGPGLVKPSQSLSLTCSVTGYSITSGYYWNWIRQFPGNKLEWMGYISYDGSNNYNPSLKTRISITRDTSKNQFFLKLNSVTSEDTATYYCVRERGLLLGHFDVWGTGTTVTVSS
VL: DIQMTQSSSYLSVALGGRVTITCKASDHINNRLAWYQQKPGNAPRLLISGATKLETGIPSRFRGSGSGKDYTLSIFSLQTEDVATYYCQQYWSTSYTFGGGTKLELR
notes: tested as chimeric mAb
binding result (human CCR4): no binding (tested: 100 nM (highest concentration tested))

IC50, hCCL1-induced Ca2+ flux (stimulation %), Chem-1 hCCR8 cells [upper graph] [2]: 17.8 nM
IC50, hCCL1-induced beta-arrestin recruitment (RLU), CHO-K1 hCCR8 cells [3]: 2.28 nM
EC50 [1]: 0.126 nM
B2: 115C5E3B8 (antibody, V domains shown)
VH: DVQLQESGPGLVKPSQSLSLTCSVTGYSITSGYYWNWIRQFPGNKLEWMGYISYDGYNDYNPSLKNRISITRDTSKNQFFLKLNSVTTEDTATYYCARETGLRKAWFAYWGQGTLVTVSG
VL: DIQMTQSSSYLSVSLGGRVTITCKASDHINNRLAWYQQKPGNAPRLLISDTSSLETGVPSRFSGSGSGKDYTLRITSLQTEDVATYYCQQYWGTPYTFGGGTKLEIK
notes: tested as chimeric mAb
binding result (human CCR4): no binding (tested: 100 nM (highest concentration tested))

binding result [4]: binds
B3: Hu195H8D10-7 (antibody, V domains shown)
VH: EVQLVESGGGLVQPGGSLRLSCAASGFNFNTYVMNWVRQAPGKGLEWVARIRTKSNNYATYYADSVKDRFTISRDDSKNSLYLQMNSLKTEDTAVYYCVSGTITRLGGGLDYWGQGTLVTVSS
VL: DIVMTQSPLSLPVTPGEPASISCRSSKRLLHSNGNTYLYWYLQKPGQSPQLLIYRMSNLASGVPDRFSGSGSGTAFTLKISRVEAEDVGVYYCMQHLEYPFTFGGGTKLEIK
notes: humanized

binding result [4]: binds
B4: Hu195H8D10-5 (antibody, V domains shown)
VH: B3 VH
VL: B3 VL with A75D
notes: humanized

binding result [4]: binds
B5: Hu195H8D10-6 (antibody, V domains shown)
VH: B3 VH
VL: B3 VL with Y41F, A75D
notes: humanized

binding result [4]: binds
B6: Hu195H8D10-4 (antibody, V domains shown)
VH: B3 VH with A49G, V99A, S100R
VL: B3 VL with Y41F
notes: humanized

binding result [4]: binds
B7: Hu200C9B9-9 (antibody, V domains shown)
VH: B3 VH with N28S, E46N, Y61F, A63V, G108A
VL: B3 VL with R28S, A75D
notes: humanized

binding result [4]: binds
B8: Hu195H8D10-14 (antibody, V domains shown)
VH: B3 VH with K78E, N79S, V95M
VL: B3 VL with Y41F, A75D
notes: humanized

binding result [4]: binds
B9: Hu200C9B9-16 (antibody, V domains shown)
VH: B3 VH with N28S, E46N, Y61F, A63V, K78E, G108A
VL: B3 VL with R28S, Y41F
notes: humanized

binding result [4]: binds
B10: Hu200C9B9-14 (antibody, V domains shown)
VH: B3 VH with N28S, E46N, Y61F, A63V, K78E, G108A
VL: B3 VL with R28S, Y41F, A75D
notes: humanized

binding result [4]: binds
B11: Hu200C9B9-10 (antibody, V domains shown)
VH: B3 VH with N28S, E46N, Y61F, A63V, G108A
VL: B3 VL with R28S, Y41F, A75D
notes: humanized

binding result [4]: binds
B12: Hu200C9B9-2 (antibody, V domains shown)
VH: B3 VH with N28S, A49G, Y61F, A63V, V99A, S100R, G108A
VL: B3 VL with R28S, Y41F, A75D
notes: humanized

binding result [4]: binds
B13: Hu200C9B9-12 (antibody, V domains shown)
VH: B3 VH with N28S, E46N, Y61F, A63V, G108A
VL: B3 VL with R28S, Y41F
notes: humanized

binding result [4]: binds
B14: Hu200C9B9-1 (antibody, V domains shown)
VH: B3 VH with N28S, A49G, Y61F, A63V, V99A, S100R, G108A
VL: B3 VL with R28S, A75D
notes: humanized

binding result [4]: binds
B15: Hu200C9B9-6 (antibody, V domains shown)
VH: B3 VH with N28S, Y61F, A63V, G108A
VL: B3 VL with R28S, Y41F, A75D
notes: humanized

binding result [4]: binds
B16: Hu195H8D10-9 (antibody, V domains shown)
VH: B3 VH with N79S
VL: B3 VL with A75D
notes: humanized

binding result [4]: binds
B17: Hu200C9B9-15 (antibody, V domains shown)
VH: B3 VH with N28S, E46N, Y61F, A63V, K78E, G108A
VL: B3 VL with R28S
notes: humanized

binding result [4]: binds
B18: Hu200C9B9-11 (antibody, V domains shown)
VH: B3 VH with N28S, E46N, Y61F, A63V, G108A
VL: B3 VL with R28S
notes: humanized

binding result [4]: binds
B19: Hu195H8D10-3 (antibody, V domains shown)
VH: B3 VH with A49G, V99A, S100R
VL: B3 VL
notes: humanized

binding result [4]: binds
B20: Hu195H8D10-1 (antibody, V domains shown)
VH: B3 VH with A49G, V99A, S100R
VL: B3 VL with A75D
notes: humanized

binding result [4]: binds
B21: Hu200C9B9-4 (antibody, V domains shown)
VH: B3 VH with N28S, A49G, Y61F, A63V, V99A, S100R, G108A
VL: B3 VL with R28S, Y41F
notes: humanized

binding result [4]: binds
B22: Hu200C9B9-5 (antibody, V domains shown)
VH: B3 VH with N28S, Y61F, A63V, G108A
VL: B3 VL with R28S, A75D
notes: humanized

binding result [4]: binds
B23: Hu200C9B9-8 (antibody, V domains shown)
VH: B3 VH with N28S, Y61F, A63V, G108A
VL: B3 VL with R28S, Y41F
notes: humanized

binding result [4]: binds
B24: Hu195H8D10-12 (antibody, V domains shown)
VH: B3 VH with N79S
VL: B3 VL with Y41F
notes: humanized

binding result [4]: binds
B25: Hu195H8D10-13 (antibody, V domains shown)
VH: B3 VH with K78E, N79S, V95M
VL: B3 VL with A75D
notes: humanized

binding result [4]: binds
B26: Hu195H8D10-10 (antibody, V domains shown)
VH: B3 VH with N79S
VL: B3 VL with Y41F, A75D
notes: humanized

binding result [4]: binds
B27: Hu195H8D10-2 (antibody, V domains shown)
VH: B3 VH with A49G, V99A, S100R
VL: B3 VL with Y41F, A75D
notes: humanized

binding result [4]: binds
B28: Hu195H8D10-11 (antibody, V domains shown)
VH: B3 VH with N79S
VL: B3 VL
notes: humanized

binding result [4]: binds
B29: Hu195H8D10-15 (antibody, V domains shown)
VH: B3 VH with K78E, N79S, V95M
VL: B3 VL
notes: humanized

binding result [4]: binds
B30: Hu200C9B9-7 (antibody, V domains shown)
VH: B3 VH with N28S, Y61F, A63V, G108A
VL: B3 VL with R28S
notes: humanized

binding result [4]: binds
B31: Hu195H8D10-16 (antibody, V domains shown)
VH: B3 VH with K78E, N79S, V95M
VL: B3 VL with Y41F
notes: humanized

binding result [4]: binds
B32: Hu195H8D10-8 (antibody, V domains shown)
VH: B3 VH
VL: B3 VL with Y41F
notes: humanized

binding result [4]: binds
B33: Hu200C9B9-13 (antibody, V domains shown)
VH: B3 VH with N28S, E46N, Y61F, A63V, K78E, G108A
VL: B3 VL with R28S, A75D
notes: humanized

binding result [4]: binds
B34: Hu200C9B9-3 (antibody, V domains shown)
VH: B3 VH with N28S, A49G, Y61F, A63V, V99A, S100R, G108A
VL: B3 VL with R28S
notes: humanized
